Positions count from the first letter of the chain named. Numbers in names are those of the source.
Columns and labels:
[1] = molecular target: T1, VEGF (human, UniProt P15692-4 27-191, limits assumed); experiment: competition ELISA: Fab + biotinylated VEGF, then KDR-IgG plate
T1 construct: also called vascular endothelial growth factor; biotinylated VEGF
Procedure: Standards (6.9-440 ng/ml chimeric F(ab)) and two-fold serial of samples were incubated with 2 nM biotinylated VEGF for 1 h in tubes. The solutions from the tubes were then transferred to the ELISA plates and incubated for 1 h. […] Titration curves were fit with a four-parameter nonlinear regression curve-fitting program (KaleidaGraph, Synergy Software, Reading Pa.). […] Assays for full-length IgG were the same as for the F(ab)s except that the assay buffer contained 10% human serum.

[2] = molecular target: T2, VEGF121 (human, UniProt P15692 27-147); experiment: BIAcore SPR, VEGF121 on chip, Fab in flow
T2 construct: mature; also called Purified VEGF121
T2 sequence (looked up): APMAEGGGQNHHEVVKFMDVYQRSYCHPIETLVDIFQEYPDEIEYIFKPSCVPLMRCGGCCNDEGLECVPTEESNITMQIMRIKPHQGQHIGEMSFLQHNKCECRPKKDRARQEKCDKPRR
Procedure: (§1) VEGF₁₂₁ was covalently immobilized on the biosensor chip via primary amino groups. Binding of humanized A4.6.1 Fab variants was measured by flowing solutions of Fab in PBS/0.05% TWEEN 20™ over the chip at a flow rate of 20 μL/min. Following each binding measurement, residual Fab was stripped from the immobilized ligand by washing with 5 μL of 50 mM aqueous HCl at 3 μL/min. Binding profiles were analyzed by nonlinear regression using a simple monovalent binding model (BIAevaluation software v2.0; Pharmacia).

[3] = molecular target: T2, VEGF121; experiment: BIAcore SPR, VEGF121 on chip
Procedure: as §1

[4] = molecular target: T1, VEGF; experiment: BIAcore-2000 SPR, wt = Y0192
Procedure: (§2) The VEGF-binding affinities of Fab fragments were calculated from association and dissociation rate constants measured using a BIAcore-2000™ surface plasmon resonance system (BIAcore, Inc., Piscataway, N.J.). A biosensor chip was activated for covalent coupling of VEGF using N-ethyl-N′-(3-dimethylaminopropyl)-carbodiimide hydrochloride (EDC) and N-hydroxysuccinimide (NHS) according to the supplier's (BIAcore, Inc., Piscataway, N.J.) instructions. VEGF was buffered exchanged into 20 mM sodium acetate, pH 4.8 and diluted toapproximately 50 μg/mL. An aliquot (35 μL) was injected at a flow rate of 2 μL/min to achieve approximately 700-1400 response units (RU) of coupled protein. Finally, 1 M ethanolamine was injected as a blocking agent.
(§3) For kinetics measurements, two-fold serial dilutions of Fab were injected in PBS/TWEEN™ buffer (0.05% TWEEN 20™ in phosphate buffered saline) at 25° C. at a flow rate of 10 μL/min. […] Equilibrium dissociation constants, Kd's from surface plasmon resonance (SPR) measurements were calculated as koff/kon.

[5] = molecular target: T1, VEGF; experiment: BIAcore-2000 SPR
Procedure: as §2, §3

[6] = molecular target: rhVEGF165 (human, UniProt P15692 27-191); experiment: cell-based or functional assay

B1: F(ab)-1 (Fab, V domains shown)
VH: EVQLVESGGGLVQPGGSLRLSCAASGYTFTNYGMNWVRQAPGKGLEWVGWINTYTGEPTYAADFKRRFTISRDNSKNTLYLQMNSLRAEDTAVYYCARYPHYYGSSHWYFDVWGQGTLVTVSS
VL: DIQMTQSPSSLSASVGDRVTITCSASQDISNYLNWYQQKPGKAPKLLIYFTSSLHSGVPSRFSGSGSGTDFTLTISSLQPEDFATYYCQQYSTVPWTFGQGTKVEIK
With B1 the fold reduction of binding affinity against chimeric F(ab) [1] was > 1000 fold.

B2: hu2.10 (Fab, V domains shown)
VH: B1 VH with V37I, R72L, N74T, K76A, N77S, L79V, R98K
VL: B1 VL with F71Y
notes: Phage-selected consensus clone, soluble Fab with human constant domains; also called consensus clone hu2.10
B2 was tested, and the “KD(A4.6.1)/KD(mut) as headed (values run as KD(mut)/KD(A4.6.1))” value [2] was 35 ratio and the “fold tighter KD against hu2.0” value [3] was ≥ 125 fold.

B3: F(ab)-8 (Fab, V domains shown)
VH: B1 VH with I70F, R72L, N74T, L79A
VL: B1 VL with L46V
notes: F(ab)-5 with IleH69Phe and LeuH78Ala; Human CH1 and CL
For B3, the “fold improvement of binding against F(ab)-5” value (shortened to “fold improvement of binding”) [1] was 8 fold.

B4: hu2.10V (Fab, V domains shown)
VH: B1 VH with V37I, R72L, N74T, K76A, N77S, L79V, R98K
VL: B1 VL with L46V, F71Y
notes: hu2.10 with the Leu->Val change at VL 46; Fab
For B4, the “KD(A4.6.1)/KD(mut) as headed (values run as KD(mut)/KD(A4.6.1))” value [2] was 5.8 ratio and the “fold improvement in KD against hu2.10” value [3] was 6 fold.

B5: F(ab)-5 (Fab, V domains shown)
VH: B1 VH with R72L, N74T
VL: B1 VL with L46V
notes: Human CH1 and CL
B5 was tested, and the “fold increase of binding affinity against F(ab)-4” value [1] was ~4 fold.

B6: F(ab)-7 (Fab, V domains shown)
VH: B1 VH with I70F, R72L, N74T
VL: B1 VL with L46V
notes: F(ab)-5 with IleH69Phe; Human CH1 and CL
B6 was tested, and the “fold improvement of binding” value [1] was 2 fold.

B7: F(ab)-6 (Fab, V domains shown)
VH: B1 VH with R72L, N74T, L79A
VL: B1 VL with L46V
notes: F(ab)-5 with LeuH78Ala; Human CH1 and CL
For B7, the “fold improvement of binding” value [1] was 2 fold.

B8: F(ab)-9 (Fab, V domains shown)
VH: B1 VH with G49A, I70F, R72L, N74T, L79A
VL: B1 VL with L46V
notes: F(ab)-8 with GlyH49Ala; Human CH1 and CL
With B8 the “fold reduction of binding against F(ab)-8” value [1] was 15 fold.

B9: chimeric F(ab) (Fab, V domains shown)
VH: EIQLVQSGPELKQPGETVRISCKASGYTFTNYGMNWVKQAPGKGLKWMGWINTYTGEPTYAADFKRRFTFSLETSASTAYLQISNLKNDDTATYFCAKYPHYYGSSHWYFDVWGAGTTVTVSS
VL: DIQMTQTTSSLSASLGDRVIISCSASQDISNYLNWYQQKPDGTVKVLIYFTSSLHSGVPSRFSGSGSGTDYSLTISNLEPEDIATYYCQQYSTVPWTFGGGTKLEIKR
notes: Murine A4.6.1 VH fused to human CH1 at SerH113 and murine VL fused to human CL at LysL107; also called chim-F(ab); A4.6.1 chimera
B9 showed an EC50 [1] of 49 µg/mL.

B10: Y0238-1 (Fab, V domains shown)
VH: EVQLVESGGGLVQPGGSLRLSCAASGYTFTNYGINWVRQAPGKGLEWVGWINTYTGEPTYAADFKRRFTFSLDTSKSTAYLQMNSLRAEDTAVYYCAKYPYYRGTSHWYFDVWGQGTL
VL: DIQLTQSPSSLSASVGDRVTITCRANEQLSNYLNWYQQKPGKAPKVLIYFTSSLHSGVPSRFSGSGSGTDFTLTISSLQPEDFATYYCQQYSTVPWTFGQGTKVEIKR
notes: Clone of library YC-81 on the pY0192 template; Soluble Fab
For B10, the “Kd (wt)/Kd” value [4] was 7.3 ratio.

B11: Y0313-3 (Fab, V domains shown)
VH: B10 VH with R103Y, T105S
VL: B10 VL
notes: Reversion mutant of Y0238-3 (VH3 T105S); soluble Fab
In the case of B11, the “Kd (wt)/Kd” value [4] is reported as 4.5 ratio.

B12: Y0238-3 (Fab, V domains shown)
VH: B10 VH with R103Y
VL: B10 VL
notes: Soluble Fab from E. coli 34B8
B12 was tested, and the “Kd (wt)/Kd” value [4] was ≥ 14 ratio and the Kd [5] was 0.15 nM.

B13: Y0244-4 (Fab, V domains shown)
VH: B10 VH with L72I, T74K, Y101H, R103Y, T105S
VL: B10 VL
notes: Soluble Fab
B13 was tested, and the “Kd (wt)/Kd” value [4] was 0.9 ratio.

B14: Y0243-1 (Fab, V domains shown)
VH: B10 VH with T28D, N31H, I34M, Y101H, R103Y, T105S
VL: B10 VL
notes: Soluble Fab from E. coli 34B8
With B14 the “Kd (wt)/Kd” value [4] was 4.1 ratio.

B15: Y0313-1 (Fab, V domains shown)
VH: B10 VH with T28D, N31H, I34M, R103Y
VL: B10 VL
notes: Y0243-1 with VH3 H101Y and S105T; soluble Fab
For B15, the “potency in the HuVEC assay relative to the wild-type Fab (Y0192)” value [6] was > 30 fold and the “Kd (wt)/Kd” value [4] was ≥ 20 ratio.

B16: Y0238-10 (Fab, V domains shown)
VH: B10 VH with G104N
VL: B10 VL
notes: as for B10
For B16, the “Kd (wt)/Kd” value [4] was 4.8 ratio.

B17: Y0244-1 (Fab, V domains shown)
VH: B10 VH with L72V, T74V, Y101H, R103Y, T105S
VL: B10 VL
notes: Soluble Fab
With B17 the “Kd (wt)/Kd” value [4] was 3.6 ratio.

B18: Y0238-5 (Fab, V domains shown)
VH: B10 VH with R103I, G104A, T105K
VL: B10 VL
notes: as for B10
For B18, the “Kd (wt)/Kd” value [4] was 3.2 ratio.

B19: Y0238-7 (Fab, V domains shown)
VH: B10 VH with R103W
VL: B10 VL
notes: as for B10
For B19, the “Kd (wt)/Kd” value [4] was ≥ 7.3 ratio.

From US20070196374A1 (published 2007)
